Here are results for 2 molecules from PMC9629070 (Autophagy, 2022).

Holding throughout (assay): pull-down
One assay has as its target GAPC1-His (Arabidopsis thaliana, UniProt P25858 1-338).
For the next assay, the target named is GAPC2-His (Arabidopsis thaliana, UniProt Q9FX54 1-338).
In another assay the target is T1, GST-ATG6 (Arabidopsis thaliana, UniProt Q9M367 1-517).
T1 sequence (looked up): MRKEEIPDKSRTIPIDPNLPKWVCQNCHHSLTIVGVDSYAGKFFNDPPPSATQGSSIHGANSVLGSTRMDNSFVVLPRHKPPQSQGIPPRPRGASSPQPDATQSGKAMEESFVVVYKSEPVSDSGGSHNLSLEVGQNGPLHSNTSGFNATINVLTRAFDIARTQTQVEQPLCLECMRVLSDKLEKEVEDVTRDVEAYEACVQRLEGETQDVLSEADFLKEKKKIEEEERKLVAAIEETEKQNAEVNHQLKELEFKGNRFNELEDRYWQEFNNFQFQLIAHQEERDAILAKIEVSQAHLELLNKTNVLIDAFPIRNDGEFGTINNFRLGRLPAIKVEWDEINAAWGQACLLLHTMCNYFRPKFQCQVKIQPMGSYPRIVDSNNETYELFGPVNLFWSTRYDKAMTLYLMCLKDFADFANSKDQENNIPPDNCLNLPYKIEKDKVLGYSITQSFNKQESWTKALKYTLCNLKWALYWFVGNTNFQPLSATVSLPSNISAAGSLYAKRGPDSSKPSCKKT

Chain of GAPC2-His (Q9FX54 whole entry): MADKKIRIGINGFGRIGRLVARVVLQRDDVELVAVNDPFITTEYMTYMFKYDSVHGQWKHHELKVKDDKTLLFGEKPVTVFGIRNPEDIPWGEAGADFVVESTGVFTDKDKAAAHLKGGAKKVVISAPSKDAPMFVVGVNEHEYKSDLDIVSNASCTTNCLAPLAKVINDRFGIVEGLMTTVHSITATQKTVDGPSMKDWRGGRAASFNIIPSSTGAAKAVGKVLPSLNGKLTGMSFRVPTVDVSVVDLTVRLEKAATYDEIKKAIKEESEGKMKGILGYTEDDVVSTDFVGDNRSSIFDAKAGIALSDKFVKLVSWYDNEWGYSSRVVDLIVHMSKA
Chain of GAPC1-His (P25858 whole entry): as the sequence (Q9FX54 whole entry) above, with H61N, V65I, D68E, G92A, F98Y, S227A, M274L counted along it

B1: GST-ATG3 (natural protein, Arabidopsis thaliana, UniProt Q0WWQ1 1-313, looked up)
chain: MVLSQKLHEAFKGTVERITGPRTISAFKEKGVLSVSEFVLAGDNLVSKCPTWSWESGDASKRKPYLPSDKQFLITRNVPCLRRAASVAEDYEAAGGEVLVDDEDNDGWLATHGKPKDKGKEEDNLPSMDALDINEKNTIQSIPTYFGGEEDDDIPDMEEFDEADNVVENDPATLQSTYLVAHEPDDDNILRTRTYDLSITYDKYYQTPRVWLTGYDESRMLLQPELVMEDVSQDHARKTVTIEDHPHLPGKHASVHPCRHGAVMKKIIDVLMSRGVEPEVDKYLFLFLKFMASVIPTIEYDYTMDFDLGSSST
As for B1, the binding result in the assay with GAPC1-His and with GAPC2-His was “binds” each time.

B2: PGK3-His (natural protein, Arabidopsis thaliana, UniProt Q9SAJ4 1-401, looked up)
chain: MATKRSVGTLKEADLKGKSVFVRVDLNVPLDDNSNITDDTRIRAAVPTIKYLMGNGSRVVLCSHLGRPKGVTPKYSLKPLVPRLSELLGVEVVMANDSIGEEVQKLVAGLPEGGVLLLENVRFYAEEEKNDPEFAKKLAALADVYVNDAFGTAHRAHASTEGVAKFLKPSVAGFLMQKELDYLVGAVANPKKPFAAIVGGSKVSTKIGVIESLLNTVDILLLGGGMIFTFYKAQGLSVGSSLVEEDKLDLAKSLMEKAKAKGVSLLLPTDVVIADKFAPDANSKIVPATAIPDGWMGLDIGPDSIKTFSEALDTTKTIIWNGPMGVFEFDKFAAGTEAVAKQLAELSGKGVTTIIGGGDSVAAVEKVGLADKMSHISTGGGASLELLEGKPLPGVLALDEA
Regarding B2, in the assay with GST-ATG6, the binding result is reported as “binds”.
